Laboratory results taken from patent US20220089765A1, “CD31 COMPETITORS AND USES THEREOF” (ENCEFA, priority 2019, published 2022).

Legend:
[1] = test system: midbrain dopaminergic (TH+) neurons; assay: MPP+ intoxication model in midbrain cell cultures, survival of DA (TH+) neurons; assay type: cell-based, Wistar rat
Protocol: For this purpose, spontaneously occurring DA cell death was prevented by a treatment combining depolarizing concentrations of K^+ (30 mM) and MK801 (5 μM), a glutamate receptor antagonist used to prevent unwanted excitotoxic insult. The cultures were then exposed to 3 μM MPP between 5 and 7 days in vitro (DIV) to achieve a loss of approximately 50% of DA neurons.
Animals were treated in accordance with the Guide for the Care and Use of Laboratory Animals (National Research Council, 1996), European Directive 86/609, and the guidelines of the local institutional animal care and use committee. Cultures were prepared from the ventral mesencephalon of gestational age 15.5 Wistar rat embryos (Janvier Breeding Center, Le Genest St Isle, France). Dissociated cells in suspension obtained by mechanical trituration of midbrain tissue pieces were seeded at a density of 1.2-1.5×10^5 cells/cm^2 onto tissue culture supports precoated with 1 mg/mL polyethylenimine diluted in borate buffer pH 8.3 as described (Michel et al., 1997. J Neurochem. 69(4):1499-507). The cultures were then maintained in N5 medium supplemented with 5 mM glucose, 5% horse serum, and 0.5% fetal calf serum, except for the first 3 DIV, when the concentration of fetal calf serum was 2.5% to favor initial maturation of the cultures (Guerreiro et al., 2008. Mol Pharmacol. 74(4):980-9). They were fed daily by replacing 70% of the medium. Routinely, mesencephalic cultures were established on Nunc 24-well culture plates (Thermofischer Scientific, Rochester, N.Y.). Note that these cultures contain tyrosine hydroxylase (TH)^+ neurons that were exclusively dopaminergic (Traver et al., 2006. Mol Pharmacol. 70(1):30-40). TH^+ neurons represented approximately 1-2% of the total number of neuronal cells present in these cultures. The evaluation of the survival of DA neurons was performed by counting cells immunopositive for TH as described (Toulorge et al., 2011. Faseb J. 25(8):2563-73).
Treatments with MPP were performed in cultures where the spontaneous death process was prevented by long-term exposure to depolarizing concentrations of K^+ (30 mM), in the presence of the glutamate receptor antagonist MK801 (5 μM) to prevent unwanted excitotoxic insults as described previously (Douhou et al., 2001. J Neurochem. 78(1): 163-74). Treatments with MPP and potential neuroprotective molecules were carried out between 5 and 7 DIV.
The cultures were fixed for 12 min using 4% formaldehyde in Dulbecco's phosphate-buffered saline (PBS), then washed twice with PBS before an incubation step at 4° C. for 24 h with the following antibodies. A monoclonal anti-TH antibody diluted 1/5000 (ImmunoStar, Inc., Hudson, Wis.) was used to assess the survival of DA neurons. Antibody was diluted in PBS containing 0.2% Triton X-100. Detection of the primary antibodies was performed with an Alexa Fluor-488 conjugate of an anti-mouse IgG antibody.

IL-10 = IL-10 levels in mice after intravenous injection (plasma ELISA); settings: mouse
Protocol: To test whether the anti-inflammatory properties of agonistic anti-CD38 antibodies were also observe in vivo, we intravenously injected anti-CD38 antibody clone HB7 (15 mg/kg) to mice.
Blood samples collected in collection tube (Microvette® 500 EDTA-K3, […]) were centrifuged at 3000 rotations per minute during 15 minutes. Supernatants (plasma) were collected and transferred into tubes and froze at −80° C. for further analysis. IL-10 levels in plasma samples were assayed using an ELISA IL-10 kit (BioLegend®) according to the indications for use specified by the manufacturer.

B1: sCD31: soluble form of CD31; murine sCD31 with SEQ ID NO: 3 (protein)
chain: MLLALGLTLVLYASLQAEENSFTINSIHMESLPSWEVMNGQQLTLECLVDISTTSKSRSQHRVLFYKDDAMVYNVTSREHTESYVIPQARVFHSGKYKCTVMLNNKEKTTIEYEVKVHGVSKPKVTLDKKEVTEGGVVTVNCSLQEEKPPIFFKIEKLEVGTKFVKRRIDKTSNENFVLMEFPIEAQDHVLVFRCQAGILSGFKLQESEPIRSEYVTVQESFSTPKFEIKPPGMIIEGDQLHIRCIVQVTHLVQEFTEIIIQKDKAIVATSKQSSEAVYSVMAMVEYSGHYTCKVESNRISKASSIMVNITELFPKPKLEFSSSRLDQGELLDLSCSVSGTPVANFTIQKEETVLSQYQNFSKIAEESDSGEYSCTAGIGKVVKRSGLVPIQVCEMLSKPSIFHDAKSEIIKGHAIGISCQSENGTAPITYHLMKAKSDFQTLEVTSNDPATFTDKPTRDMEYQCRADNCHSHPAVFSEILRVRVIAPVDEVVISILSSNEVQSGSEMVLRCSVKEGTSPITFQFYKEKEDRPFHQAVVNDTQAFWHNKQASKKQEGQYYCTASNRASSMRTSPRSSTLAVRVFL
modifications: Soluble CD31 (sCD31)
EC50 of prevention of MPP+-induced DA cell loss ([1]; 3 μM MPP+ between 5 and 7 DIV, sCD31 during the intoxication period): 0.036 µg/mL
neuroprotective effect against MPP+-induced DA cell death ([1]; 3 μM MPP+ between 5 and 7 DIV, test substance up to 1 μg/mL): prevented
neuroprotective effect in the presence of antagonistic anti-CD38 antibody clone AT13/5 ([1]; 3 μM MPP+, test substance 1 μg/mL, AT13/5 1 μg/mL): antagonized
neuroprotective effect in the presence of anti-CD31 antibody clone Moon-1 ([1]; 3 μM MPP+, test substance 1 μg/mL, Moon-1 1 μg/mL): antagonized
neuroprotective effect in the presence of antagonistic anti-CD38 antibody clone OKT10 ([1]; 3 μM MPP+, test substance 1 μg/mL, OKT10 1 μg/mL): antagonized
neuroprotective effect in the presence of endosidin2 ([1]; 3 μM MPP+, test substance 1 μg/mL, endosidin2 40 μM): antagonized
neuroprotective effect in the presence of the tyrosine kinase inhibitor genistein ([1]; 3 μM MPP+, test substance 1 μg/mL, genistein 10 nM): antagonized
neuroprotective effect in the presence of the lysosomal exocytosis inhibitor vacuolin-1 ([1]; 3 μM MPP+, test substance 1 μg/mL, vacuolin-1 10 μM): antagonized
release of IL-10 in vivo (conclusion in words) (IL-10): strong release
